According to the nanobody polyreactivity screen of Harvey et al. (2022):

Test: yeast display, Sf9 membrane polyspecificity reagent, FACS + sequencing; frameworks hold sequencing errors
How it was run: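 A nanobody's polyreactivity label depends on the gate it was sorted from. Yeast display cells were stained with 10% biotinylated, detergent-solubilized Sf9 membrane reagent for 1 hour at 4 °C, enriched on streptavidin microbeads and sorted by FACS. The low and high (top ~1%) gates were set on anti-HA fluorescence for expression and streptavidin fluorescence for reagent binding.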

Sequence	polyreactivity (PSR sort gate)
QVQLVESGGGLVQAGGSLRLSCAASGFIFAHNAMGWYRQAPGKVRELVAAISWGSGSTYYADSVKGRFTISRDNAKITVYLQMNSLKPEDTAVSYCAARAVRYYAWVRGGWTSFDYWGQGTQVTVSS	high polyreactivity
QVQLVESGGGLVQAGGSLRLSCAASGFIFAIYAMGWYRQAPGKERELVAAITSSSSTYADSVKGRFTISRDNAKNTVYLQMNSLKPEDTAVYYCAADTYSYRYSNDYWGQGTQVTVSS	low polyreactivity
QVQLVESGGGLVQAGGSLRLSCAASGFIFALYARGWYRQAPGTERELVAAITSSSSTYAASVKGRFTISRDNAKNTVYLQMNSLKPEDTAVYYCAADTYSYRYSNDYWGQGTQVTVSS	low polyreactivity
QVQLVESGGGLVQAGGSLRLSCAASGFIFARNTMGWYRQAPGKERELVAAITKSGGSTYYADSVKGRFTISRDNAKNTVYLQMNSLKPEDTAVYYCAARTYTLRGVYFSGYNYWGQGTQVTVSS	low polyreactivity
QVQLVESGGGLVQAGGSLRLSCAASGFIFARYAMGWYRQAPGKERELVAAISSGGRTYFADSVKGRFTISRDNAKNTVYLQMNSLKPEDTAVYYCAKRPTNGYGTFDYWGQGTQVTVSS	high polyreactivity
QVQLVESGGGLVQAGGSLRLSCAASGFIFASNAMGWYRQAPGKERELVAAINSSGGSTYYADSVKGRFTISRDNAKNTVYLQMNSLKPEDTAVYYCAADVIGDLRWYRDEYWGHGTQVTVSS	low polyreactivity
QVQLVESGGGLVQAGGSLRLSCAASGFIFASYAMGWYRQAPGKERELVAAISWRGGSTYYADSVKGRFTISRDNAKNTVYLQMNSLKPEDTAVYYCNAYVYVGTGRGYDTLDYWGQGTQVTVSS	low polyreactivity
QVQLVESGGGLVQAGGSLRLSCAASGFIFATYTMGWYRQAPGKERELVAAITWRGGSTYYADTVKGRFPISRDNAKNTVYLQMNSLKPEDTAVYYCAAQDVNSYRYVEDVYCGQGTQVTVSS	low polyreactivity
QVQLVESGGGLVQAGGSLRLSCAASGFIFAWNAMGWYRQAPGKERELVASISSGGGSTYYADSVKGRFTISRDNAKNTVYLQMNSLKPEDTAVYYCAASYAYLRGLHYYKYDSWGQGTQVTVSS	low polyreactivity
QVQLVESGGGLVQAGGSLRLSCAASGFIFAWYAMGWYRQAPGKERELVARISRGGSTYYADSVKGRFTISRDNAKNTVYLHMNSLKPEYTAVYYCTAGAAYTYTRYDYWGQGTQVTVSS	high polyreactivity
QVQLVESGGGLVQAGGSLRLSCAASGFIFAWYTMGWYRQAPGKERELVAAISANGGNTYYADSVKGRFTISRDNAKNTVYLQMNSLKPEDTAVYYCAALYKYSSSFDYWGQGTQVTVSS	high polyreactivity
QVQLVESGGGLVQAGGSLRLSCAASGFIFAYNAMGWYRQAPGKERELDAAISRSGGSTRYADSVKGRFTISRDNAKNTVYLQMNSLKPEDTAVYYCNVSRYGYGVGRGLYIYDYWGQGTQVTVSS	high polyreactivity
QVQLVESGGGLVQAGGSLRLSCAASGFIFAYNAMGWYRQAPGKERELVAAISWSGGSTYYADSVKGRFTISRDNAKNTVYLQMNSLKPEYTAVYYCNAKYLGRRWDGNYNYWGQGTQVTVSS	high polyreactivity
QVQLVESGGGLVQAGGSLRLSCAASGFIFAYNIIGWSRHAPGTERELVADISGTGSTNYADSVKGRFTISRDNAKNTVYLQMNSLKPEDTAVYYCAAAKFDVSFWLYFWGQGTQVTVSS	low polyreactivity
QVQLVESGGGLVQAGGSLRLSCAASGFIFAYYAMGWYIQAPGKERELVAAISLSGARTYYADSVKGRFTISRDTAKNTVYLQMNSLKPEDTAVYYCAATPWSYEYYYWGQGTQVTVSS	low polyreactivity
QVQLVESGGGLVQAGGSLRLSCAASGFIFAYYAMGWYRQAPGKERELVAGINRTGSTNYADSVKGRFSISRDNAKNTVYLQMNSLKPEDTAVYYCAARGYRSGGGYNYWGQGTQVTVSS	high polyreactivity
QVQLVESGGGLVQAGGSLRLSCAASGFIFDANAMGWYRQAPGKERELVAAISRRGGRTYYADSVKGRFTISRDNAKNTVYLQMNSLKPEDTAVYYCAADWPDASRYGGGYWGQGTQVTVSS	high polyreactivity
QVQLVESGGGLVQAGGSLRLSCAASGFIFDDNTMGWYRQAPGKERELVAAISYSAGSTYYADSVKGRFTISRDNAKNTVYLQMNSLKPEDTAVYYCNKDAASWDYYGGNDYWGQGTQVTVSS	low polyreactivity
QVQLVESGGGLVQAGGSLRLSCAASGFIFDLYAMGWYRQAPGKERELVAAITTSGGTTYYADSVKGRFTISRDNAKNTVYLQMNSLKPEDTAVYYCAARRYSWYYYWGQGTQVTVSS	high polyreactivity
QVQLVESGGGLVQAGGSLRLSCAASGFIFDPYGMGWYRQAPGKERELVAAITASGGTTYYADSVKGRFTISLDYANNTVYLQLNSLKPEDTAVYYCAAAVWYRGWYRYDYWGQGTKVTVSS	low polyreactivity
QVQLVESGGGLVQAGGSLRLSCAASGFIFDQYAMGWYRQAPGKERELVATITSDGDTYYADSVKGRFTISRDNAKNTVYLQMNSLKPDDTAFYYFAVDPGPYTTGYEYWGQGTQLTVSS	low polyreactivity
QVQLVESGGGLVQAGGSLRLSCAASGFIFDRYAMGWSRQAPGKERELVAAITGSGGSTYYADSVKGRFTISRDNAKNTVYFQMNSLKPEDTAVYYSAAESYDYFALFYVSIPYYYWGQGTQVTVSS	high polyreactivity

Sequence	polyreactivity (PSR sort gate)
QVQLVESGGGLVQAGGSLRLSCAASGFIFDSNAMGWYRQAPGKERELVAAISRRGGSTYYADSVKGRFTISRDNAKNTVYLQMNSLKPEDTAVYYCNAEYGSHVKYGYWGQGTQVTVSS	high polyreactivity
QVQLVESGGGLVQAGGSLRLSCAASGFIFDSYAMGWYRQAPGKERELVAAISWSGGRTYYADSVKWRFTISRDNAKNTVYLQMNSLKPEDTAVYYCNVRTKLSTSYDYWGQGTQVTVSS	high polyreactivity
QVQLVESGGGLVQAGGSLRLSCAASGFIFDSYAMGWYRQAPGKVRELVATISRRGSSTYYADSVKGRFTISRDNAKNTVYLQMNSLKPEDNAVYYCAAGSISYYYKLYWGGYWGQGTQVTVSS	high polyreactivity
QVQLVESGGGLVQAGGSLRLSCAASGFIFDYNAMGWYRQAPGKERELVAAIDITGGSTYYADSVKGRFTISRDNAKNTVYLQMNSLKPEDTAVYYCNRPYYIWVYSGYSGYDYWGQGTQVTVSS	low polyreactivity
QVQLVESGGGLVQAGGSLRLSCAASGFIFDYNAMGWYRQAPGKERELVAAISISGGGTYYADSVKGRFTISRDNAKNTVYLQMNSLKPEDTAVYYCATAGRYDAYDYWGQGTQVTVSS	low polyreactivity
QVQLVESGGGLVQAGGSLRLSCAASGFIFDYYAMGWYRQAPGKERELVAAISRGGSTYYADSVKGRFTISRDNAKNTVYLQMKSLKPEDTAVYYCKAMSYHFWEFDYWGQGTQVTVSS	high polyreactivity
QVQLVESGGGLVQAGGSLRLSCAASGFIFDYYAMGWYRQAPGKERELVAAITSRGGSTYYADSVKGRFTISRDNAKNTVYLQMNSLKPEDTAVYYCAARRRYAEYNYWGQGTQVTVSS	high polyreactivity
QVQLVESGGGLVQAGGSLRLSCAASGFIFDYYAMGWYRQAPGKERELVAGISNGDTTYYADSVKGRFTISRDNAKNTVYLQMNSLKPEDTAVYYCNAKPFYWVLGGYDYWGQGTQVTVSS	low polyreactivity
QVQLVESGGGLVQAGGSLRLSCAASGFIFDYYAMGWYRQAPGKERELVAGISWSGGSTYYADSVKGRFTISRDNAKNTVYLQMNSLKPEDTAVYYCNAEYSVPFYLYYYWGQGTQVTVSS	low polyreactivity
QVQLVESGGGLVQAGGSLRLSCAASGFIFDYYAMGWYRQAPGKERELVATISSSGGSTYYADSVKGRFTISRDNAKNTVYLQMNSLKPEDTAVYYCATGYTWVADSWEYYYWGQGTQVTVSS	low polyreactivity
QVQLVESGGGLVQAGGSLRLSCAASGFIFETNAMGWYRQAPGKERELVAAISSRGGSTYYADSVKGRFTISRDNAKNTVYLQMNSLKPEDTAVYYCAAKLVVSYGQEYDYWGQGTHVTVSS	low polyreactivity
QVQLVESGGGLVQAGGSLRLSCAASGFIFEWNGMGWYRQAPGKERELVAAITWSGGSTYYADSVKGRFTISRDNAKNTVYLQMISLKPEDTAVYYCAADFPEYYLPYDNWGQGTQVTVSS	low polyreactivity
QVQLVESGGGLVQAGGSLRLSCAASGFIFFAYAMGWYRQAPGKERELVAAISRTGGSTYYADSVKGRFTISRDNAKNTVYLEMNSLKPEDTAVYYCAAVVSRTYQWWTYDYWGQGTQVTVSS	high polyreactivity
QVQLVESGGGLVQAGGSLRLSCAASGFIFFAYAMGWYRQAPGKERELVAAISSSGTRTYYADSVKGRFTISRDNAKNTVYLQMNSLKPEDTAVYYCARYIPVYTREREYNYWGQGTQVTVSS	high polyreactivity
QVQLVESGGGLVQAGGSLRLSCAASGFIFFGEYVMGWYRQAPGKERELVAAITWSGGSTSYADSVKGRFTISRDNAKNTVYLQMNSLKPEDTAVYYCNAVSHFSTAIEFDYWGQGTQVTVSS	low polyreactivity
QVQLVESGGGLVQAGGSLRLSCAASGFIFFGEYVRGWYRQAPRKEREFVAAITDSDGSTYYADSVKGRFTISRDNAKNTVYLQMNSLKPEDTAVYYCAAERVYSDIDYWGKGTQVTVSS	low polyreactivity
QVQLVESGGGLVQAGGSLRLSCAASGFIFFGYAMGWYRQAPGKERELVAAITSGGSTYYADSVKGRFTISRDNAKNTVYLQMNSLKPEDTAVYYCAAVRWYGSKRYGYWGQGTQVTVSS	high polyreactivity
QVQLVESGGGLVQAGGSLRLSCAASGFIFFINDMGWYRQAPGKERELVAAISWSGGSTYYADSVKGRFTISRDNAKNTVYLQMNSLKPEDTAVYYCAADWLIYDLSRFDYWGQGTQVTVSS	low polyreactivity
QVQLVESGGGLVQAGGSLRLSCAASGFIFFPYTMGWYRQAPGKERELVAAITNGGSTSYADSVKGRFTISRDNAKNTVYLQMNSLKPEDTAVYYCAADLGRNLLHTFYYWGQGTQVTVSS	low polyreactivity
QVQLVESGGGLVQAGGSLRLSCAASGFIFFVNAMGWYRQAPGKEREFVATITGSGGSTYYADSVKGRFTISRDNAKNTVYLQMYSLKPEDTAVYYCNAETYIDLRGKFPVEYDYWGQGTQVTVSS	low polyreactivity
QVQLVESGGGLVQAGGSLRLSCAASGFIFGANAMGWYRPAPGKERELVAAITWSAGRTYYADSVKGRFTISRVNAKNTVYLKMNSLKREDSAVYYCAKQRARQSPEVGYWGQGTQVTVSS	high polyreactivity
